Biological target: T1, GST (UniProt P08515 1-218 = GST)
T1 construct: Negative control of the pull-down; also called GST alone
Assay: GST pull-down on GSH-sepharose, immunoblot

T1 sequence (P08515 whole entry): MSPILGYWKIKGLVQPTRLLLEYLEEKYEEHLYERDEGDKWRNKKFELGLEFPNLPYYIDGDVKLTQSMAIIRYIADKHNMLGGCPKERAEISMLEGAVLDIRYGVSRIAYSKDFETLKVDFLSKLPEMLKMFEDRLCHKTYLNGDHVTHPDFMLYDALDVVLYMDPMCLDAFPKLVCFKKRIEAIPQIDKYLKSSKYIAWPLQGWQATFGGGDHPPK

B1: His6-T7-tagged MP1 (other, UniProt O88653 1-124, looked up)
chain: MADDLKRFLYKKLPSVEGLHAIVVSDRDGVPVIKVANDSAPEHALRPGFLSTFALATDQGSKLGLSKNKSIICYYNTYQVVQFNRLPLVVSFIASSSANTGLIVSLEKELAPLFEELIKVVEVS
notes: Recombinant, in bacterial lysate; also called His6-T7-MP1; not shown: N-terminal His6-T7 tag from vector pET28 (Novagen)
binding result: no binding
